In experiment [1] the target is cynomolgus FolR1 monovalent Fc fusion, biotinylated (cynomolgus). Briefly: SPR Biacore, monovalent, binder captured via anti-Fab.
Experiment [2] concerns the target human FolR1 monovalent Fc fusion, biotinylated (human) (UniProt P15328). The description is as above.
The target of experiment [3] is cynomolgus FolR1 monovalent Fc fusion, biotinylated (cynomolgus). Put plainly: SPR Biacore, bivalent avidity (apparent KD), antigen on chip. (In general: In SPR one partner is held on a chip, and binding of the other changes the refractive index at the surface.)
The target in experiment [4] is human FolR1 monovalent Fc fusion, biotinylated (human) (UniProt P15328). Described as above.
The target of experiment [5] is cynomolgus FolR1 monovalent Fc fusion, biotinylated (cynomolgus). Put plainly: SPR Biacore, bivalent avidity, antigen on chip.
Experiment [6] addresses human FolR1 monovalent Fc fusion, biotinylated (human) (UniProt P15328). Briefly: SPR Biacore, bivalent avidity, antigen on chip.

Sequence of cynomolgus FolR1 monovalent Fc fusion, biotinylated (cynomolgus) (chain, as listed by the source limits assumed, form in doubt): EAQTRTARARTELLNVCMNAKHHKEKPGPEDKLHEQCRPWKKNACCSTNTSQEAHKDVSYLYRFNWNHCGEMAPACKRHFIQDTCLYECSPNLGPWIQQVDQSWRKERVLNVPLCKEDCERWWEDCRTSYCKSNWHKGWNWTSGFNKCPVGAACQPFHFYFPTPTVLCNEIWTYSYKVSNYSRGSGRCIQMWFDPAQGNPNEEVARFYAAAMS
Sequence of human FolR1 monovalent Fc fusion, biotinylated (human) (P15328 25-233 limits assumed): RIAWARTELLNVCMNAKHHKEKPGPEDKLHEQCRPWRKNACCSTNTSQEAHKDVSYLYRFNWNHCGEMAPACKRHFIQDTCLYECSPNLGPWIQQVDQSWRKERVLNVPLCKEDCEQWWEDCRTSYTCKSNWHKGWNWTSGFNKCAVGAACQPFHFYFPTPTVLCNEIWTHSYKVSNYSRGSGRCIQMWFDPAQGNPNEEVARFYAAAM

B1: Mov19 IgG (antibody, from a related filing, V domains shown, part only)
VH: QVQLQQSGAELVKPGASVKISCKASGYSFTGYFMNWVKQSHGKSLEWIGRIHPYDGDTFYNQNFKDKATLTVDKSSNTAHMELLSLTSEDFAVYYCTRYDGSRAMDYWGQGTTVTVSS
VL: DIELTQSPASLAVSLGQRAIISCKASQSVSFAGTSLMHWYHQKPGQQPKLLIYRASNLEAGVPTRFSGSGSKTDFTLNIHPVEEEDAATYYCQQSREYPYTFGGGTKLEIK
B1: the Kd in experiment [1] amounted to 0.65 nM; in experiment [2], 0.55 nM; in experiment [3], 0.108 nM; in experiment [4], 0.14 nM. For the same molecule, the dissociation rate constant (koff) (usually the rate constant with which the complex falls apart) in experiment [1] came out at 0.000193 s⁻¹; in experiment [2], 0.000159 s⁻¹; in experiment [5] it was 0.000139 s⁻¹; in experiment [6], 0.000121 s⁻¹. The kon (commonly the second-order rate constant of association) amounted to 297000 M⁻¹ s⁻¹ in experiment [1], 289000 M⁻¹ s⁻¹ in experiment [2], 1.29e+06 M⁻¹ s⁻¹ in experiment [5] and 861000 M⁻¹ s⁻¹ in experiment [6].

B2: Farletuzumab (antibody, INN chains, looked up, V domains shown)
VH: EVQLVESGGGVVQPGRSLRLSCSASGFTFSGYGLSWVRQAPGKGLEWVAMISSGGSYTYYADSVKGRFAISRDNAKNTLFLQMDSLRPEDTGVYFCARHGDDPAWFAYWGQGTPVTVSS
VL: DIQLTQSPSSLSASVGDRVTITCSVSSSISSNNLHWYQQKPGKAPKPWIYGTSNLASGVPSRFSGSGSGTDYTFTISSLQPEDIATYYCQQWSSYPYMYTFGQGTKVEIKR
With B2, the Kd came out at 67.3 nM in experiment [1] and 0.65 nM in experiment [3]. Besides, the off-rate (koff) in experiment [1] was found to be 0.0373 s⁻¹; in experiment [2], 0.023 s⁻¹; in experiment [5], 0.000868 s⁻¹; in experiment [6], 0.0009 s⁻¹. Moreover, the on-rate constant (kon) in experiment [1] came out at 553000 M⁻¹ s⁻¹; in experiment [2], 417000 M⁻¹ s⁻¹; in experiment [5], 1.33e+06 M⁻¹ s⁻¹; in experiment [6], 1.23e+06 M⁻¹ s⁻¹.

The values above are taken from patent publication US20170253670A1.
